Values quoted from earlier work as cited in patent publication US20090317412A1, “Induction of an immune response against streptococcus pneumoniae polyaccharides” (priority 2004, published 2009).

Target: T1, murine I-A^b molecules (Mus musculus, UniProt P14434+P14483)
T1 sequence (P14434 24-256): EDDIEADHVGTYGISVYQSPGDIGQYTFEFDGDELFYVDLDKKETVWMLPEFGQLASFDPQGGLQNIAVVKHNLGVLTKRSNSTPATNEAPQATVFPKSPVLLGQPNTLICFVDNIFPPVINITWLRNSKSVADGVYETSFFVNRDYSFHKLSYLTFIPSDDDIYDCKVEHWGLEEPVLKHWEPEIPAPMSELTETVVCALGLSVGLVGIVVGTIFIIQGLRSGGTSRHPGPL
T1 sequence (P14483 28-265): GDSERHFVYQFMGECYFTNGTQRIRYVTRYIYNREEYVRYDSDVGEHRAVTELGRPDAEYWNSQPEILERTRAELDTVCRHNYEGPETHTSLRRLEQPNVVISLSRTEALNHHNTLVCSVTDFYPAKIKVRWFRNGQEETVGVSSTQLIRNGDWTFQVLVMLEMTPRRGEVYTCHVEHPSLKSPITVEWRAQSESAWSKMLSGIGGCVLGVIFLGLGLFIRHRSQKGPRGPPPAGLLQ

In the case of AKXVAAWTLKAAA [pan DR binding peptide], the “binding to murine I-A^b molecules” value is given as “binds”.
